The text below walks through data of paper PMC8928829 (mAbs, 2022).

Holding throughout (conditions): both partners purified
For assay [1], the target named is recombinant SARS-CoV-2 RBD, prototype (BLI) (SARS-CoV-2, prototype (Wuhan-Hu-1), UniProt P0DTC2). Briefly: BLI.
Assay [2] concerns the target T1, SARS-CoV-2 RBD (prototype), construct made for crystallography (SARS-CoV-2, prototype (Wuhan-Hu-1)).
T1 construct: also called prototype SARS-CoV-2 RBD; SARS-CoV-2 RBD (319-537)
Briefly: crystal structure.

Assay [3] has as its target SARS-CoV-2 RBD, prototype (SARS-CoV-2, prototype (Wuhan-Hu-1), UniProt P0DTC2). The assay is described as follows: BLI. Background: Biolayer interferometry detects binding as a change in optical thickness at a sensor tip.

B1: NIH-CoVnb-112 (VHH)
VHH: DVQLQESGGGLVQPGGSLRLSCAASGLTLDYYAIGWFRQAPGKEREGVSCISSSDGSTYYADSVKGRFTTSRDNAKNTVYLQMNSLKPEDTAVYYCAAVPSTYYSGTYYYTCHPGGMDYWGKGTQVTVSS
Usually Kd stands for the constant that tells how readily two partners part at equilibrium. What is called koff is a measure of how fast the partners let go of each other. Turning to B1, in assay [1], the Kd came to 1.59 nM and the off-rate constant (koff) turned out to be 0.000236 s⁻¹. Also, the binding result in assay [2] is “binds”.

B2: NIH-CoVnb-112 (VHH)
VHH: B1 VHH
What is called kon is the rate constant with which the complex forms. Regarding B2, the kon in assay [3] was 223000 M⁻¹ s⁻¹.
